In patent US5763571A, “Inhibiting protein interactions” (The General Hospital Corporation, priority 1995, dated 1998):
Each block holds one molecule with its values, some of them ahead of it.

Molecular target: T1, Raf(1-257) (Homo sapiens, UniProt P04049)
T1 construct: expressed in transfected cells; host or cells: yeast strain GGY1::171, plasmid pMA424
Test: Yeast two-hybrid GAL4/lacZ interaction with Raf(1-257)
Format: cell-based
Conditions: X-gal plates
Description: Detection of protein-protein interactions using the two-hybrid system in yeast was carried out as follows. The vector pMA424 (Chien C. T., Bartel P. L., Sternglanz, R., Fields, S., Proc. Natl. Acad. Sci. U.S.A. 88, 9578-9582 (1991)) containing either Raf(1-257) or Raf(1-257, C168 →S) DNA sequences fused in frame with the sequences encoding GAL4 (1-147), was cotransformed into yeast together with the pACTII vector containing no insert as a control, or DNA sequences encoding V12GrasH, V12GrasHΔCT, murine rap1b, or rap1bΔCT fused in frame with the GAL4 transactivation domain II. […]
The DNA sequences encoding Raf(1-257) and Raf(1-257, C168 →S) were prepared by the PCR using the plasmids RSV-C4 and RSV-PM17 (Bruder, J. T., Heidecker, G. & Rapp, U.R. Genes Dev. 6, 545-556 (1992)) respectively as templates. […] The reading frame and the C168 →S mutation were verified by DNA sequencing. […] Transformants were grown on SDHis-Leu-plates as in (Durfee, T. et al. Genes Develop. 7, 555-569 (1993); Chien C. T., Bartel P. L., Sternglanz, R., Fields, S., Proc. Natl. Acad. Sci. U.S.A. 88, 9578-9582 (1991)) for 3 days before replica plating to X-gal containing plates, which in turn were scored for blue colonies 72 hours later.
Ras effector domain mutants which impair the interaction between V12GrasHΔCT and Raf(1-257) were analyzed as follows. […]

lacZ expression on coexpression with wild-type Raf(1-257) (in words): interact strongly
B1: V12Grap-1b: Rap 1b low molecular weight GTP binding protein variant, GAL4 fusion (protein)
chain: ANFNQSGNIADSSLSFTFTNSSNGPNLITTQTNSQALSQPIASSNVHDNFMNNEITASKIDDGNNSKPLSPGWTDQTAYNAFGITTGMFNTTTMDDVYNYLFDDEDTPPNPKKEMREYKLVVLGSVGVGKSALTVQFVQGIFVEKYDPTIEDSYRKQVEVDAQQCMLEILDTAGTEQFTAMRDLYMKNGQGFALVYSITAQSTFNDLQDLREQILRVKDTDDVPMILVGNKCDLEDERVVGKEQGQNLARQWNNCAFLESSAKSKINVNEIFYDLVRQINRKTPVPGKARKKSSCQLL

lacZ expression on coexpression with wild-type Raf(1-257) (in words): interact strongly
B2: V12Grap-1bΔCT: V12Grap-1b lacking the carboxyterminal 4 amino acids (protein)
chain: ANFNQSGNIADSSLSFTFTNSSNGPNLITTQTNSQALSQPIASSNVHDNFMNNEITASKIDDGNNSKPLSPGWTDQTAYNAFGITTGMFNTTTMDDVYNYLFDDEDTPPNPKKEMREYKLVVLGSVGVGKSALTVQFVQGIFVEKYDPTIEDSYRKQVEVDAQQCMLEILDTAGTEQFTAMRDLYMKNGQGFALVYSITAQSTFNDLQDLREQILRVKDTDDVPMILVGNKCDLEDERVVGKEQGQNLARQWNNCAFLESSAKSKINVNEIFYDLVRQINRKTPVPGKARKKSS
